Laboratory results published in the nanobody polyreactivity screen of Harvey et al. (2022).

Assay: yeast display, Sf9 membrane polyspecificity reagent, FACS + sequencing; frameworks hold sequencing errors
In short: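 After 36–48 hours of galactose induction, yeast (Saccharomyces cerevisiae BJ5465) displaying a synthetic nanobody library were stained at 4 °C for 1 hour with 10% biotinylated, detergent-solubilized Sf9 membrane reagent. Streptavidin microbeads enriched the stained cells before FACS sorting into low and high (top ~1%) gates on anti-HA and streptavidin fluorescence. Each clone's polyreactivity label reflects its gate of origin.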

Sequence: QVQLVESGGGLVQAGGSLRLSCAASGYTLRPNGMGWYRPAPGKERELVAAISSGGSTYYADSVKGRFTISRDNAKNTVYLQMNSLKPEDTAVYYCAAEYWYDYWGQGTQVTVSS
- polyreactivity (PSR sort gate): low polyreactivity

Sequence: QVQLVESGGGLVQAGGSLRLSCATSGRTFSQYAMGWYRQAPGKERELVAVISGSGGSTYYADSVKGRFTISRDNAKNTVYLQINSLKPEDTAVYYCAKRATSWHQYDYWGQGTQVTVSS
- polyreactivity (PSR sort gate): low polyreactivity

Sequence: QVQLVESGGGLVQAGGSLRLSCAASGFTFISNAMGWYRQAPGKERELVAAISSAGGRTYYADSVKGRFTISRATAKITVYLQMNTLKPEDTEVYYSNADRSLLYSRKIEYDSWGQGTQVTVSS
- polyreactivity (PSR sort gate): low polyreactivity

Sequence: QVQLVESGGGLVQAGGSLRLSCAASGSTFAGYAMGWYRQAPGKERELVAAISRRGGSTYYADSVKGRFTISRDNAKNTVYLQMNSLKPEDTAVYYCNRDKYLRDPDYDYWGQGTQVTVSS
- polyreactivity (PSR sort gate): low polyreactivity

Sequence: QVQLVESGGGLVQAGGSIRLTCAASGLIFLVYPMGWYRPAPGKERELVASIRTGRSTSYADSVKGRFTISRDNAKYTVYLQMNSLKPEDTAVYYCAADRGRPNLPGDYWGQGTQVTVSS
- polyreactivity (PSR sort gate): low polyreactivity

Sequence: QVQLGESGGGLVQAGGSLRLICAASGRTFKKYPMGWYRQAPGKERDVVAAISWSGGTTYYAHSEKGRFTISRDTAKNTVYLQMNSLKPEDTAVYYSAARVSRTGHGYYYYWGQVTQVTVSS
- polyreactivity (PSR sort gate): high polyreactivity

Sequence: QVQLVESGGGLVQAGGSLRISCAASGRIFSYNAMGWYRQAPGKERELVASISRGGSTYADSVKGRFTISRDNAKNTVYLQMNRLQPADTAVYYCNAVHFSYEYDYWGQGTQVTVSS
- polyreactivity (PSR sort gate): high polyreactivity

Sequence: QVQLVESGGGLVQAGGSLRLSCAASGSIFFYYAMGWYRQAPGKERELVAAIRSGTSTNYADSVKGRFTISRDNAKNTVYLQMNSLKPEDTAVYYCAARFPGGGYGMDYWGQGTQVTVSS
- polyreactivity (PSR sort gate): low polyreactivity

Sequence: QVQLVESGGGLVQAGGSLRLSCAASGSTFQTYAMGWYRQAPGKERELVASIDYSGGSTYYADSVKGRFTISRDNAKNTVYLQMNSLKPEDTAVYYCAADLSSDSSYSGYDYWGQGTQVTVSS
- polyreactivity (PSR sort gate): low polyreactivity

Sequence: QVQLVESGGGLVQAGGSLRLSCAASGSTFRYNAMGWYRQAPGKERELVAAITSSGSRTYYADSVKGRFTISRDNAKNTVYLQMNSLKPEDTAVYYCAAYGYYTKVTKYDYWGQGTQVNVSS
- polyreactivity (PSR sort gate): high polyreactivity

Sequence: QVQLVESGGGLVQAGGSLRLSCAASGSTFGYNAMGWYRPAPGKERELVARITSSGGSTYYADSVKGRFTISRDNAKISVYLQMNSLKPEDTAVYYCAAGYPYRAVYRYYYWGQGTQVTVSS
- polyreactivity (PSR sort gate): high polyreactivity

Sequence: QVQLVESGGGLVQAGGSLRLSCAASGRTFAWYAMGRYRQAHGKERELVAVIRRGSGDTYYADSVKARFTISRDNAKNTVYLQMNSLKTEDTAVYYCAAEGRFSFYGGGRTKYSRYDYWGQGTQVTVSS
- polyreactivity (PSR sort gate): high polyreactivity

Sequence: QLQQHESGGGLVQAGDSPRLSCAESDNIFPDSVMCWYLQAPGKERELVATIGFGATTNYADSVKGRFTISRDNAKNTVYLQMNCLKPEDTAVYYSAADPLNYEYFCYWGQGTQVTVSS
- polyreactivity (PSR sort gate): low polyreactivity

Sequence: QVQLVESGGGLVQAGGSLRLSCAASGITFRYYTMGWYRQAPGKERELVAAISRSGGSTYYADSVKGRFTISRDNAKNNVYLQMNSLKPEDTAVYYCAVDYTYDMDYWGQGTQVTVSS
- polyreactivity (PSR sort gate): high polyreactivity

Sequence: QVQLVESGGGLVQAGGSLRLSCAASGFTFDIYGMGWYRQAPGNERDLVASITSRSARTYYAYSVKGRFTISRDNAKNTVYLQMNSLKPEDTAVYYCAAYYWQCTYDSRRTGWRLMNYWGQGTQVTVSS
- polyreactivity (PSR sort gate): high polyreactivity

Sequence: QVQLVESGGGLVQAGGSLRLSCAASGSTFAEYAMGLYRQAPGKERELVAAISRRGGSTYYADSVKGRFTFSRDNAKYSVYLQMNSLKPEDTAVYYCATDGYTPYRWLWWLMDYWGQGTQVTVSS
- polyreactivity (PSR sort gate): high polyreactivity

Sequence: QVQLVESGGGLVQAGGSLRLSCAASGFTFTWYAMGWYRQAPGKQRELVASISRSGGSTYYAESVKGRFTISRDNAKNTVYLQMNSRKPEDTAVYYCAAVSRTRSYDYWGQGTQVTVSS
- polyreactivity (PSR sort gate): high polyreactivity

Sequence: QVQLVESGGGFVQAGGSLRLSCAASGSILSGYAMGWYRPAPGKERELVAAITSGGDTNYADSVKGRFTISRDNAKNTVYLQMNSLKPEDTAVYYCNRRGDFRIAYYDPMDYWGQGTQVTVSS
- polyreactivity (PSR sort gate): low polyreactivity

Sequence: HVQLVESGGGLVQAGGSLRLICAASGFIFRFNAMGWYRQAPGKERELVAAISGSGGITYYADSVKGRFTISRDNAKNTVYLQMNSLKPEDTAVYYCAARPLFGWRGYNYWGQGTQVTVSS
- polyreactivity (PSR sort gate): high polyreactivity

Sequence: QVQLVESGGGLVQAGGSLRLSCAASGSTFNYNAMGWYRQAPGKERELVAAITGTGGDTYYADSVKGRITISRDNAKNTVYLQMNILKPEDTAVYYCDAEEDYWGQGTQVTLSS
- polyreactivity (PSR sort gate): low polyreactivity

Sequence: QVQLVESGGGLVQAGGSLRLSCAASGSTFSYNMGWYRQAPGKERELVAAISGSGGSTYADSVKGRFTISRDNAKNTVYLQMNSLKPEDTAVYYCATVRYWVHEYGYWGQGTQVTVSS
- polyreactivity (PSR sort gate): high polyreactivity

Sequence: QVQVVESGGGLVQAGGSLRLSCAASGRTYRSNAMGWYRQAPGKERELVAAIRTSGGSTYYADSVKGRFTISRDNAKNTVYLQMNSLKPEDTAVYYCNAELRDLEFDYWGQGTQVTVSS
- polyreactivity (PSR sort gate): low polyreactivity

Sequence: QVQLVESGGGLVQAGGSLRLTCAASGRIFGPYVLGWYRQAPGKERELVAAISTSGTSTYYADSVKGRFTISRDNAKNTVYLQMNSLKPEDTAVYYCAKRSGARHRLMDYWGQGTQVTVSS
- polyreactivity (PSR sort gate): low polyreactivity

Sequence: QVQLVESGGGLFQEGGSLRLSCAASGRTFKYYAMGWYRQAPGKERELVASISQSGTSTYYADSVKGRFTISRDNAKSTVYLQLNSLKPEDTAVYFCGARTRYRYYSYGYWGQATQVTVSS
- polyreactivity (PSR sort gate): high polyreactivity

Sequence: QDQHVESGGGLVQAGGSLRLSCAASGRIFFHNAMGWSRQAPGKERELVAAIRSSTGSTYYADSVKGRFTISRDNAKNTVYLQMNSLKPEDTAVYYCARYAYANAYYGKSYWMGYWGQGTQVTVSS
- polyreactivity (PSR sort gate): high polyreactivity

Sequence: QVQLVESGGGLVQAGGSLRLSCAASGRIFSRYAMGWYRQAPGKERELVAAISCNGCSTYYADSVKGRFTISRDNAKNTVYLQMNSLKPEDTAVYYCAAYRPGPYAAYGYWGQGTQVTVSS
- polyreactivity (PSR sort gate): high polyreactivity

Sequence: QVQLVESGGGLVQAGGSLRLSCAASGSTFGVNAMGWYRQAPGKEREFVAAITSSSGSTYYADSVKGRFTISRDNAKNTVYLQMNSLKPEDTAVYYCNKRYIQLYDYWGQGTQVTVSS
- polyreactivity (PSR sort gate): low polyreactivity

Sequence: QVQLVESGGGLVQAGGSLRLSCAASGSIYRYYDMGWYRQAPGKERELVAAITYSGGGTYYADSVKGRFTISRDNAKNTVYLQMNSLKPEDTAVYYCAAEPYYGWKRLDYWGQVTQVTVSS
- polyreactivity (PSR sort gate): low polyreactivity

Sequence: QVQLVESGGGLVQAGGSLRLSCAASGRTFWYYAMGWYRQAPGKERELVAGITFTGGRTYYADSVKGRFTISRDNAKNTVYLQMNSLKPEDTAVYYCAKATEYYAESDDYDYWGQGTQVTVSS
- polyreactivity (PSR sort gate): low polyreactivity

Sequence: QVQLVESGGGLVQAGGSLRLSCAASGITLEDYDMGWYRQAPGKERELVAAITSGGSTNYADSVKGRFTISRDNAKNTVYLQMNSMKPEDTAVYYCNADFAIRWWYYFGSGYDYWGQGTQVTVSS
- polyreactivity (PSR sort gate): low polyreactivity

Sequence: QVQLVESGGGLVQEGGSLPLSCAASGSIIWVYAMGWYRQPPGKERELFAAITSGVSTYYADSVKGRFTISRDNAKITVYFQFNRLKPEDSAVYDCAVVGGFRWIRMEYWGQGTQVSVSS
- polyreactivity (PSR sort gate): low polyreactivity

Sequence: QVQLVESGGGLVQAGGSLRLSCAASGSTFPIYAMGWYRQAPGKERELVASIRSGGSTYYADSVKGRFTMSRDNAKNTVYLQMNSLKPEDTAVYYCARRDYGVLNKGLGQEGDYWGQGTQVTVSS
- polyreactivity (PSR sort gate): low polyreactivity
